The record followed here is patent US20060035245, “Modulators of enzymatic nucleic acid elements mobilization” (published 2006).

The data set has as its target Tn5 transposase hyperactive mutant (EK54, MA56, LP372) (UniProt Q46731 Q46731:1-476, E54K,M56A,L372P). The data set is described as follows: EMSA; complex assembly, inhibited by small molecules with IC50 3.5-46 uM. The conditions noted are these: chain copies: 2; label: fluorescein 5' end of transferred strand. On the technique in general: In EMSA bound probe runs differently from free probe, usually more slowly.

Procedure: For FP analysis, 60 μL reactions were analyzed using the FP protocol on a Wallac Victor V plate reader and a 7% native polyacrylamide gel was used in gel shift assays. For compound screening and subsequent analysis, 1 μL of either DMSO or test compound (final concentration 80 μM) was added to the synapsis reactions. Compound screening was carried out using a Beckman Coulter Biomek FX in a 384 well format. […] IC₅₀ values were obtained by fitting inhibitor titration data (0, 0.01, 0.05, 0.1, 0.5, 2.5, 10, 20, 35, 50, 100, 200, 400, 800 μM) to an exponential decay.

B1: 60 bp Tn5 substrate for inhibitor verification (dsDNA)
DNA 1: GGCCACGACACGCTCCCGCGCTGTCTCTTATACACATCTTGAGTGAGTGAGCATGCATGT
DNA 2: ACATGCATGCTCACTCACTCAAGATGTGTATAAGAGACAGCGCGGGAGCGTGTCGTGGCC
Consider B1, for which the binding result was “binds”.
